From paper PMC5657598

Molecular target: Get1/2 heterodimer, cytosolically labeled (Get1-S77C-Cy5 and Get2-S28C-Cy3) (yeast) (UniProt P53192)
Assay: FRET or BRET

B1: Get3-D57N (enzyme)
chain: MDLTVEPNLHSLITSTTHKWIFVGGKGGVGKTTSSCSIAIQMALSQPNKQFLLISTNPAHNLSDAFGEKFGKDARKVTGMNNLSCMEIDPSAALKDMNDMAVSRANNNGSDGQGDDLGSLLQGGALADLTGSIPGIDEALSFMEVMKHIKRQEQGEGETFDTVIFDTAPTGHTLRFLQLPNTLSKLLEKFGEITNKLGPMLNSFMGAGNVDISGKLNELKANVETIRQQFTDPDLTTFVCVCISEFLSLYETERLIQELISYDMDVNSIIVNQLLFAENDQEHNCKRCQARWKMQKKYLDQIDELYEDFHVVKMPLCAGEIRGLNNLTKFSQFLNKEYNPITDGKVIYELEDKE
Q: How did the Kd turn out when B1 was run?
A: < 1 nM

Q: What about the stoichiometry N (Get3 homodimer per Get1/2 heterodimer) of the same binder?
A: 1
